Measurements reported in the NTF2 design screens of Basanta et al. (2020).

Assay: protease stability score; higher = more stable; yeast display proteolysis, trypsin and chymotrypsin;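 also: log10 excess protease needed over predicted unfolded state with 0 meaning unfolded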

Sequence | protease stability score
DEDKQHEFATRNVKAWETNDENQMRRLMDPNAKVRIGDKEYRGREEILRLLNEFKKRVDHVQVKSYDVHNGHVHINIVASVNGQRHEMHVKFQFHNGEIVKMQIDDS | 0.203
DHSKHLTNVIKRMQRLFKHGNFSEVAKQADKDVEVRVGDKTYNGRDQYVDSQRKIEHQVDNADLKFQHVDNQGDKIDVIYEFVVVHNGRHEKTTEQAVLSLHNGRVRATKIHDS | -0.102
DEERVQQMLEQAFKAIQNGNEEQMQKLGKPNVEYKYVDHEYEGPDAARVMVQLVKRVGAEVKQQKVEVKGNTATAVFQYHDGDQTVETTAEVEYEGDKMKKARVELTDEVKKVVHKG | -0.117
DERAEELVKRIFEALHDGDPQKFVNNIDPNARVNIGDEEIHGRKDAEREIQKRLEHSRVRFDLRSFRVSNGRAEATANVQENHNGRPQTNTVKATFVIHDGRVKEINMQHDG | -0.101
DEHNEAVELMKKLWEAARTGDEEELHKQVDKDVRINVGDKELHGNSQAARKIMERAKRVDHVDVKIQEVTHKGDKIVMRVQFRNTHNGRETDSRYVVWFKNSNGRWVFVKIERG | 1.31
DDDEVRKLVHNLERGNFDDFVRQADPNAKVTIGNKTYHGREDIKSAYKKLKDQVDHLEVKRVRHHNGRLNVERIVVVNGRNIRYHVRLTIHNGRIKHIRYQATNEEQQKWMDEVIK | 0.559
DEEDVKKILDKVLKMAVKGDKDQVKTMLKPDVEYIHIDEKRQGQQVAEQVHKEIKKVGARAEIKEKTVEGDKAKVTYQFKVNGRTVEVTAEVEAKDGRVDKWQVHISDEAKEMMTKG | -0.289
DEDDERQMEEVVETGDPDRMAENADPNVRVDVGDHEVHGRERAQKMWQQEKKQVDHLEVKEVHTENGRINADVVVVVNGRSLQVTVVASMHNGKIEYYSIQFTSEKQKKQWHDANG | -0.048
DEKRFTELAEKAFKIIMNGNEEEARKMGKPNVEYKYGDKEFEGEEAMQYAVQLVIKVGAEAKVRRMEVRGDTMRADFQYTLGDKTVQTTAQVQYEGDYAKKAENELSDEAKKIMHQG | 0.434
DEEDLERMQDFMRAINKGDEDRLTKLVDENVHWVVGDKRVHGREQLRKEVDRRREKMSIKFDRVDAHADNGHAVVNIEYNVKHNGQPTSNFVRVQAEATNGKIKEVVVQEDK | -0.279
DEKDMEQQDRVFRHGNEKKLEDLVDEDARVEVGNRRYHGREQVVRFFQQQVKQVDHRTIRSVKLTGDKFDAVLQVVINGQTYTYRFKAKVHNGKVKVLRVEFTDPQREKEFEKQLD | 0.206
DDSVKRLIKNLLKAWEHGDEHRARELMDEDARVTYGDQQVTGREEVARHHATRQKEIRYSIENMDVKVQGNHVEIHVEQQQTHNGEPKQFRYTMDVEARNGKIKRFEIQERR | 0.187
DEDTLRTQEEQFKRNNPDDLKKQFDPNAKIRYGDKEITGREDLKKFIDKLRKRIDHYRVRSINIKGEHVRADVVVVVDGRHVRYKVIRHLDNGKVKSLEVKFTSEEQEKKFKEALD | 0.261
DETKAAQVAAELISAIVHGDTDRALELADKDVRADIGENKVHGREEMHKMVEQYDKSVDHASVKTYKVSGNSVKVNVEVTHNGRKRTVDFTAEAHNGKAKQVTAEVK | -0.768
DEEKLMRNMIKKVSKLLKEGNWDEIANNADKNAKYDVGDTEVHGKEHAQEMHDRFRQNVDHAELSVTRVDVKGDKVQVHVDHSFTNNGRKHKFHLIFWASNVNGRMVIKSVQQK | 0.565
EQTFVHEFIKNVQRNNEHELKKLIDPNAKVVVGNKTFQGREQINSQLKRFKDQVDEFHVDTYHDKGDKAVIDYVRVVDGQRVHYRLIITAENGKVKSMELHVTDPEQQKTIERVLD | 1.33
DEKETRKLLKDVAEAFENGNNEEIKKLLKDDVEVQYADKRVHGPDQVVEMVKKYQDLGAKVEYKKLDVRGDTVTVDVQADLGGRTAEFKVTYQAQGQKVDRFKVKYDETAKKLIKHG | 0.22
EEEANRNVRKFEQALRHNDPHTLLELVDPNADLQIGNERIKGMHHAAKHLIDWMEEIRVQIRRVTFITRPNHAQLKRKVQAEVNGQPFEYTVEVVFNFHNGRVTEVHMRMDEDKQRKLRS | 0.12
DDRTQKRLAEEVVRILNRGDEDQIRKMADKDVKARVGEQSVHGRETALRLLIEFNRRVDHVDIRHVHTEEGRVEVDLVAEVNGRRIRMHIVFILHNGKLHKVEMDPDELRKLEK | 0.868
DRKLEEVFRKWLKAQKEGNPEVARKNADKDAKIVIGDTQIHGRDEMAEKVRHRKKHLQVDIKIKRMQIQGDKIKIKFEVVENHNGKPEKYKATAFARASDGNFKEMQVNKTG | 0.12
DERQLDLLRQFLHAVQHGDEDRLKELADPNAKFTVGDKTIHGMNTFARTVKRRRDQARFQYNVKSMEADGDKMEVRIQLHVDVNGRPINVEFTARAHVDGDKLKSLELRIPEEVLKKQES | 0.037
DETDLEKFATIVQQNNPHEFKKLLPEDAKMTYGDKTVHGREEIQRILENLVKDVDRLRIKHYKISGDKIEIDLVVNVNGRNIRFSLRAKMHNGQIKFFEIEVRDDDVKHELEKMLS | 0.069
DEEKKARRWFESFIEVFRSNDPDQAKKLADPNVRAEYGDKHYHGREEFMKHFITLAERVDHVDIELHSLRIDGNRIVMNMRYRLRYNGRTESNEVTVILVIKNGKLHIQEVREG | 1.41
DDQERREIAKNFQRGNEQVVKKLVDPNARIRVGDKTLHGRDQMSHVFKRLQEQVDHIDVKHYTISGEHIVIDAIFVINGKNIRMVIVVQVENGRVKRVDFKYTNEEQKKQLERDLS | 0.004
DDSDVNQAQTIWKHWQQGNFREIAKNADPNVKINVGDKQYHGREEYESDMQEHRNQIRVKITSMSQNKNGDKAVVDAVIVNEENGEPEEKRFVWYIKAHNGRIVSFRVEDEK | 0.176

Sequence | protease stability score
DEDKVRELVKKAFKAIVNGNEEEVRKLLDPNVKYKYVDKEFEGEEVAKFLVEMVRKLGAKVETEKTHIEGNTARATFVYKLGDQKVQTHAEVKYEGDKVKEVRVEMTDEDKKQLHRG | 1.17
DQDRLEEVRRRMTTGNPDDLRNLMDEDVTVQYGDKEVHGRDEAVDRLEKLLRQVDHLRIDSMDAHGDEFNVHLSAVVNGRQVNFVVSLRIHNGKIKHFMQQATDEDQQKRLEHAWD | 1.23
DKKLNKQMEEWVQAVNTGDSEQLEDLVDPNVRLEVGDKQFHGREEVRRQQTKKIEEIRLHLDLKDVKAENGHAQLDVNVEFEHNGQPNSNRRTLNAVVHNGKIKHLSDKTDP | -0.347
DDDEVRKIREFMHVMSRGDSNRAMEMADPNAHFKVGDKTINGRESFKSWLRKQREEIHVQIDDVTNTSEPGHVEVNADVTFEHNGQPDRVTLIMIARLKNGRITFLEIRRKK | 1.33
DDDDNKTAQDRMRTNDFTTLARHAPEDAHAQIGDTTVTGRRKLEEIVVKFREQVDHMEIKDIRTSGEKVFIDLHATFDGHTVRLVIEVEVKNGRLQKLFFRVTDPERAKEIVEQLD | 0.362
DEKQMRSVTKFIRVLQHGDNNQLRRLADPNAKARVGEKDVTGMDDILTRWVTFVEQARVKIDIREMDVSNGKVVIDAHIEIDINGRPLRDKITIIAEYRNGRLKFLELHVDQDFMRKVKR | 0.223
DDEMIRVYREMQKALQDNDPERAKELMDPNAKLRYGDKVFHGREEFAKDMERRHHESRVQIRHLKVEDQGEKAVARFNEVNNSNGRPNSKSVSVELEAHNGKLVHVRAQDTK | -0.172
DESAVNNLVRLAKAWLRGDPKKIEHLVDKDAKAQIGDKTLHGREDLKDHADELRKDMTVDVKSVTNNNQNGQAVVDVKFEADRNGRPETHTLDAKATAHNGDIVDVKIHQDG | -0.304
DEHHRKEFEDMLRVEQHGNEEQLKRYMDPNARFRYGDKKVHGREEVVRQISKRRHKLRMQYDTWDIKVKGDKITADLKYVEHQNGQPEDVRVNVSIRFHNGKLVEAHRERDK | -0.001
DEEDAEKILRTAAKAVENGDHKKLVDLGKDGVEYQLADEKAHGPEVMKKVLDYQRKLGVRVELKEVHHEGNKVVTVLVYYHGNTKLEVQIHATADGGKIDRVEVKVPETLKKQLKHG | 0.137
DEEEVKKFKEFLDDEKKGNEERAKKLADPNVNVRVGNRQVDGSDNLQKEIRTQKEQARFDMKVDHVEAHNGRIHLEFKLTVEVDGRPKSDTATADAVVTNGHITSLTVQMSEDQVREMDK | -0.238
DHELEELAKRFLEAVLTGDEDQLRRNMDPNVKVDVGDKTVKGREEAAREIHETVHRSRIHVNHVDFRLNNGRETMRMDVVVDHNGRPQKDTWKMNQDVQGDKVKNINFRTDG | -0.353
DDEKKAKSFVDDLRKILKTGDPEQMRDNADKDARLVIGDQTFHGREDAASKLVTLVKRFDHARFNVKSMTMHNGRIDVDMTFTLRVDGKNERHRVKITVEEHNGRLKMKEVHWS | 0.991
DEEQAKSMVHNMRQNNFEELDKLVDENVRVTVGNKKLHGREEYQKWLENWKKQADRITWDSIDVHGEKIDVEFRAVVNGRTVKQKVDIQFHNGRIKTARYQVTNEELDKIMKEMVE | 0.866
DEDHESRVVELLEEIVRKGDPDEVRRQADPDARVDYGDKRLHGRDFRKAAKIIEEMRVDHQQFTTYKTHNGRAQMLVTVEHNGERRDIQIIVHYRGDKMKEMRFDTG | -0.224
DEEEVERIAKKLWKIMETGDEDEARKMVPPDVQARVGDKHISGREQYAKWVREVVKRVDSFRIKSLDAKGDKVNIVFVVHHNGKVEQHHATLVFHNGKLVYRTVKTG | 0.433
DRREAHKRAQEMVDNFRDNDKDRIVELADKDVHARIGDKRLHGREELATFLVELARRADRVEVKSIHVQGEQIEMDMQMTVDGRERTFTLRMTYHNGKLKHLEIDPDDLRKIES | 0.987
DEEELRQAMKVVKTNDPDNLRKLMDENVRVQVGNKVYHGREEAEKWLERMRKQIDHVNVRRVQIQGDRIVVEMEVTVNGKTIEATLHAKLHNGSLKSLRVEATSEKEKEKIEEANK | 0.93
DEKQNDVVDDFMRAVREGDPTQLKSLVDPNARIQIGDRTYTGMEEYVTHVHKDLRKMRIEIRIKDIKAHNGHARIEFEVINTDNGRPDKKRMDVEFRIHNGKLKEAQYKSDR | 0.766
EEERDKFAKILLHAILTGNEEQFKRLADPNATFNIGDRKIHGMERYTKQMKQEVDRIKIKVESVKISVSGNKITIDMVATFNVNGQPVTIRFVLDVTIKNGRVSELVLRVSDEQLQKMRR | 0.308
DQEHVKRRADTAMKAIQNGDPDEAVKQMDPDAKMRVGDHEITGREDVRRYVETLHRRVDHNHILSLTHHGETVVFNAVVKVNGRNVTVNWVLKFHNGRLKQVDINPDEEKRFQS | 0.079
DEERKAEEMAKSIIKVWQSGDHHQQQRNADEDVRFEIGDKRINGDHQLEDWVKKIKEQYDHIEVRIKSVTRQGDKLVVIAQVVYNENGHRRQVTVRFVAVDHNGTIVLKRAIYR | 0.406
DEDSEFEAARRFFKAVQTGDEDEAMRQMDEDASARVGDKTYHGREHARKAMHNFRQEVDHIDVTTFDKSNGRLDVNAILEHNGKTKSVKINIQASNGHVKSVNIQDK | -0.103
DENLLDHMKRLFESGDWDDFSKNADKHVRVHIGEFNYRGREQARTVMNKLQKSADHVEIKRISVHNGQLQMDVTVVVNGETITVRIAAHVSNGRFVELRMSATDSKDKKALQKVQS | 1.03
DERDVKRVEEWVKAEHTGDKDKMKELLDENAEIQIGDRSITGRETRAEELRKRQEQMRVRFRKVDFQHRNGQARVDMDVQNDHNGKPHTHRVDANFQLHNGKVQRVKMTSHK | 0.099
